Results: patent WO2002045743A2

Key:
[1] = biological target: MH2 peptide (Hepatitis C virus); test: IAsys biosensor, BSA-HVR1 peptide conjugate
[2] = biological target: MH2 peptide (Hepatitis C virus); test: peptide EIA, Nunc-Immuno and CovaLab plates
[3] = biological target: MH2 peptide (Hepatitis C virus); test: peptide EIA (Table 4)

B1: mAb 2P24 (antibody)
chain 1: EFQLQQSGAELVRPGPLVTLSCKASGFNIKDYYMNWVKQRPEQGLEWIGRIDPKNGNALYDPKFQDKARITADTSSNTAYLQLNSLTSEATAVYYCSSGWLDYWGQGTSLAVYS
chain 2: DIVMTQSPASLAVFRGQRATISYRASKSVSTSGYSYMHWNQQKPGQPPRLLIYLVSNLESGVPARFSGSGSGTDFTLNIHPVEEEDAATYYCQHIRELTAFGGGTK
Work on B1 yielded a Kd [1] of 0.00585 µM, an EIA Sample/Cutoff ratio (S/CO) [2] of 24.9 S/CO and an EIA Sample/Cutoff ratio (S/CO) [3] of 24.9 S/CO.

B2: mAb 15H4 (antibody)
chain 1: QVQLQQSGAELARPGASVKLSCKASGYTFTRYWMQWVKQKPGQGLEWIGAIYCGDGDTRFTQKFKGKATLTADKSSSTAYMQLSNLASEDSAVYYCVIYGNYYDAMDYWGQGTSVTVSS
chain 2: DIVMTQAPLSMPVSLGDQASISGRSSQSLVHSNGNTYLHWYLQKPGQSPKLLIHKVSKRFSGVPDRFSGSGSGTDFTLKIRRVEAEDLGVYFCSQNTHVPFTFGGGTK
In the case of B2, the Kd [1] is reported as 0.0215 µM, the EIA Sample/Cutoff ratio (S/CO) [2] is reported as 18.1 S/CO and the EIA Sample/Cutoff ratio (S/CO) [3] is reported as 13.6 S/CO.
